Experimental data as given in publication PMC6456427.
Like-named read-outs stand apart in the source and are kept apart here.

What was measured:
Assay in all cases: SEC
[1] = target: Actinobacillus ureae class Id ribonucleotide reductase α subunit (Actinobacillus ureae)
[2] = target: Actinobacillus ureae class Id ribonucleotide reductase α subunit (Actinobacillus ureae); remark: listed apart in the source
[3] = target: Flavobacterium johnsoniae class Id ribonucleotide reductase α subunit (Flavobacterium johnsoniae)

Substance | stoichiometry N [1] | stoichiometry N [2] | stoichiometry N [3]
Actinobacillus ureae class Id ribonucleotide reductase α subunit (enzyme) | 2 | 2 | –
Flavobacterium johnsoniae class Id ribonucleotide reductase α subunit (enzyme) | – | – | 2
